Tests used:
[1] = biological target: LRRK2-phosphorylated Rab10 (pRab10) (human (endogenous in HEK293T)) (UniProt P61026)
[2] = biological target: His6 Myosin Va GTD (1,464–1,855) (UniProt Q9Y4I1); test: MST; Monolith NT.115; RED-NHS labelled His6-MyoVa GTD fixed at 100 nM, 16 serial dilutions of the unlabelled Rab/Mst3 reaction mixture (+ATP phosphorylated 2 h at 27°C; -ATP control); 50 mM Hepes pH 7.5, 5% glycerol, 150 mM NaCl, 5 mM MgCl2, 0.1 mM TCEP, GTP, 6 μM BSA, 0.01% Tween-20; 30 min in the dark at 25°C; Mst3 kinase present
[3] = biological target: T1, His6 Myosin Va GTD (1,464–1,855) (UniProt Q9Y4I1 1464-1855, labeled with RED-NHS 2nd Generation (amine reactive) dye (NT-647)); test: MST; Rab8A phosphorylated by Mst3
T1 chain: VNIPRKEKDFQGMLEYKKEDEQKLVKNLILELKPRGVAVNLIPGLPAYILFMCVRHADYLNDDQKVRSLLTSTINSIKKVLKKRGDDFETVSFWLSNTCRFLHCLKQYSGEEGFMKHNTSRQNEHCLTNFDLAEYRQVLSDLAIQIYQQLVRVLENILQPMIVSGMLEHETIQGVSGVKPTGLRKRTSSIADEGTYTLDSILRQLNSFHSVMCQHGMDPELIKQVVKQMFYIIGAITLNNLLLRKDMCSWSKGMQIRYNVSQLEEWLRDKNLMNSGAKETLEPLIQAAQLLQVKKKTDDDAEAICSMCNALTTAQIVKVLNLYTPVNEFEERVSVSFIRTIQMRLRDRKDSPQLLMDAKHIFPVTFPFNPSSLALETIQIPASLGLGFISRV

[4] = biological target: T2, His6 Myosin Va GTD (1,464–1,855) (UniProt Q9Y4I1 1464-1855, labeled with RED-NHS 2nd Generation (amine reactive) dye (NT-647)); test: MST; Monolith NT.115; RED-NHS labelled His6-MyoVa GTD fixed at 100 nM, 16 serial dilutions of the unlabelled Rab/Mst3 reaction mixture (+ATP phosphorylated 2 h at 27°C; -ATP control); 50 mM Hepes pH 7.5, 5% glycerol, 150 mM NaCl, 5 mM MgCl2, 0.1 mM TCEP, GTP, 6 μM BSA, 0.01% Tween-20; 30 min in the dark at 25°C; Mst3 kinase present; details: both partners purified
T2 construct: Myosin Va globular tail domain, residues 1,464-1,855; bacterial expression plasmid a gift from Amir Khan; purified as described by Berndsen et al 2019 and Waschbüsch et al 2020; the limits differ from those of the mCherry construct m3 (1,421-1,880, mouse); also called His6-MyoVa GTD; purified MyoVa GTD; source: E. coli BL21 (DE3 pLys), purified (Ni-NTA, Superdex-75)

[5] = biological target: T1, His6 Myosin Va GTD (1,464–1,855); test: MST; unphosphorylated Rab8A
[6] = biological target: T1, His6 Myosin Va GTD (1,464–1,855); test: MST; unphosphorylated Rab10

Work on “full-length MyoVa mCherry (natural protein)” yielded an FLIP in HeLa cells expressing R1441G LRRK2: half-time of fluorescence loss of MyoVa mCherry over the pericentriolar region of interest (adjacent cytoplasm t1/2 = 83 s; retention ameliorated by MLi-2) [1] of 272 s.

In the case of “His6 Rab10-Q63L (1–181) phosphorylated in vitro by Mst3 (from UniProt P61026 1-181) (domain or fragment)”, the Kd [2] is reported as 475 nM.

“MyoVa GTD-mCherry (1,421–1,880) (domain or fragment)” showed an FLIP in HeLa cells expressing R1441G LRRK2: half-time of fluorescence loss of GTD-mCherry over the region of interest against adjacent cytoplasm; dependent on kinase activity [1] of 107 s.

B1: His6 Rab8A Q63L phosphorylated in vitro by Mst3 (natural protein)
chain: MAKTYDYLFKLLLIGDSGVGKTCVLFRFSEDAFNSTFISTIGIDFKIRTIELDGKRIKLQIWDTAGLERFRTITTAYYRGAMGIMLVYDITNEKSFDNIRNWIRNIEEHASADVEKMILGNKCDVNDKRQVSKERGEKLALDYGIKFMETSAKANINVENAFFTLARDIKAKMDKKLEGNSPQGSNQGVKITPDQQKRSSFFRCVLL
modifications: phosphorylated by Mst3 (residue not given)
B1 was tested, and the Kd [3] was 6.6 µM and the “fold weaker binding than pRab10” value [4] was ~14 fold.

B2: His6 Rab8A Q63L, non-phosphorylated (natural protein)
chain: MAKTYDYLFKLLLIGDSGVGKTCVLFRFSEDAFNSTFISTIGIDFKIRTIELDGKRIKLQIWDTAGLERFRTITTAYYRGAMGIMLVYDITNEKSFDNIRNWIRNIEEHASADVEKMILGNKCDVNDKRQVSKERGEKLALDYGIKFMETSAKANINVENAFFTLARDIKAKMDKKLEGNSPQGSNQGVKITPDQQKRSSFFRCVLL
With B2 the Kd [5] was > 29 µM.

B3: His6 Rab10-Q63L (1–181), non-phosphorylated (domain or fragment)
chain: MAKKTYDLLFKLLLIGDSGVGKTCVLFRFSDDAFNTTFISTIGIDFKIKTVELQGKKIKLQIWDTAGLERFHTITTSYYRGAMGIMLVYDITNGKSFENISKWLRNIDEHANEDVERMLLGNKCDMDDKRVVPKGKGEQIAREHGIRFFETSAKANINIEKAFLTLAEDILRKTPVKEPNS
With B3 the Kd [6] was > 18 µM.
